From patent US20110117206A1, “PHOSPHOPEPTIDES AND USE OF THE SAME” (PLANT BIOSCIENCE LIMITED, priority 2008, published 2011) come the findings set out here.

A short description of data set [1]: SAXS and structural model of calcium phosphate nanoclusters. The class given is physicochemical. The following applies: from modelling of the structure. The method, then:
For the OPN 1-149 nanocluster, a description of the peptide segment distribution around the core was considered which is more explicit than that provided by the core-shell model. The simplest block copolymer micelle model has been used in which a corona is formed by Gaussian chains attached by one end to a uniform spherical core. The nanoclusters were prepared either on the SAXS station and measured immediately or were prepared 2 days previously to allow the system to come to equilibrium. The sample was then stored at room temperature and remeasured 5 months later during a later allocation of beamtime. […] The intensity averaged diffusion coefficient, D, was determined with a Malvern Zetasizer Nano instrument.
The results of the SAXS measurements on nanocluster sub-samples measured as a function of time after the addition of the urease are summarised in FIGS. 6a and 6b. […] According to the calculated degree of reaction of the phosphate centres and to the analysis of the correlation function given by the dynamic light scattering studies, the equilibrium state has a significant excess of free peptide, the scattering from which, although negligible at low q, has to be taken account of in modelling the SAXS at higher q. […]

Data set [2] can be described thus: SAXS of free OPN and OPN 1-149 (Guinier, worm-like chain model). The class given is physicochemical. The following applies: free peptide, 5-15 mg ml^−1, average of three determinations. The method, then: In a SAXS experiment, wherein measurements were made on station 2.1 at the CCLRC Daresbury Laboratory, the normalised scattered intensity I(q) was measured. For a dispersion of isotropic, monodisperse particles, I(q) is related to the inter-particle structure factor, S(q) and the particle scattering factor P(q) by
where N is the number of particles of mean excess scattering length density over the solvent Δ ρp, volume Vp and mass M. The scattering wave vector is q=4π sin θ/λo, where θ is half the scattering angle and λo is the wavelength of the X-rays. In a dilute solution where S(q)=1 and a fraction α′ of the peptide chains have formed a polydisperse distribution of nanoclusters, equation (22) becomes
The molar volumes of the unphosphorylated residues were taken from Jacrot and Zaccai (Jacrot, B. & Zaccai, G. (1981). Determination of Molecular-Weight by Neutron-Scattering. Biopolymers 20, 2413-2426). The molar volume of ortho-L-phosphoserine was calculated from the unit cell volume of the amino acid, as determined by Sundaralingam (Sundaralingam, M. & Putkey, E. F. (1970). Molecular structures of amino acids and peptides. II. A redetermination of the crystal structure of L-O-serine phosphate. A very short phosphate-carboxyl hydrogen bond. Acta Crystallographica B26, 790-800) and 11 Å^3 subtracted to give the residue volume of 168.7 Å^3. The difference in residue volumes of serine and phosphoserine was then used to calculate a residue volume for phosphothreonine of 191.7 Å^3. The X-ray forward scattering amplitudes of the residues were calculated from the elemental compositions using atomic scattering factors. For OPN 16P 1-149 and OPN 28P 1-262, the scattering length densities in units of […] were calculated to be 12.56 and 12.48, respectively. For the nanoclusters prepared with OPN 16P 1-149 it was assumed that the phosphate moieties of the 10 phosphorylated residues found in the three PCs, were assigned to the core, giving ρshell=12.40×10^10 cm^−2. For the core, a hydrated CaP with the composition given by equation (2) gave ρcore=19.1×10^10 cm^−2. Radii of gyration of the whole protein and N-terminal polypeptide were independent of concentration in the range 5-15 mg ml^−1. For OPN the average of three determinations by the Guinier method was 5.50±0.17 nm and the corresponding value for OPN 1-149 was 2.17±0.24 nm. For OPN with 262 residues, equation (28) predicts a radius of gyration of 5.38 nm and for the N-terminal plasmin peptide of 149 residues, the predicted value is 3.84 nm.
Random-coil behavior and the dimensions of chemically unfolded proteins. Proceedings of the National Academy of Sciences of the United States of America 101, 12491-12496). […]

Consider “OPN 1-149: N-terminal osteopontin phosphopeptide fragment from bovine milk, probably formed by plasmin; gel filtration fraction F3a”, for which the “number of peptide chains on a nanocluster” value in data set [1] is listed as “about 2618”. For the same substance, in data set [2], the “radius of gyration by the Guinier method” value is recorded as 2.17±0.24 nm.
